System: MS2 coat protein
Assay: apparent KD of MS2 coat protein; designed switch direction (-1 OFF switch, 1 ON switch): -1; higher = weaker reporter binding
Procedure, shortened: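 An oligonucleotide input, 200 uM small-molecule ligand, or no input was present during titration of SNAP-549-labelled MS2 coat protein, which was doubled from 0.7 or 1.5 nM to 3 µM. Designed RNA switches had been transcribed on Illumina chips by stalled E. coli RNA polymerase. Apparent KD per design is the median over clusters of curves fitted to normalised cluster fluorescence.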

[1] = input ligand: microRNA oligo, concentration not stated
[2] = Eterna round: R95, input ligand: FMN 200 uM
[3] = Eterna round: R95, input ligand: microRNA oligo, concentration not stated
[4] = Eterna round: R95, input ligand: none

| Sequence | apparent KD of MS2 coat protein (input ligand: FMN 200 uM) [nM] | apparent KD of MS2 coat protein [1] [nM] | apparent KD of MS2 coat protein (input ligand: none) [nM] | apparent KD of MS2 coat protein [2] [nM] | apparent KD of MS2 coat protein [3] [nM] | apparent KD of MS2 coat protein [4] [nM] |
| --- | --- | --- | --- | --- | --- | --- |
| CUGCUGGAGCUUUGCUUUAGUCGUACAUGAGGAUCACCCAUGUAGGAUAUGGUAGGCUUUGCUUACUAGAAGGAUGGAGUGGUC [salish99_ExNG3_r04_607] (Eterna round: R96, puzzle: Exclusion NG 3) | 166 | 38.1 | 50.2 |  |  |  |
| CUGUACUGAGGAUAUACAUGAGGAUCACCCAUGUGUUCCUGCUAGGAAACUAGCAAGGGUAGAAGGCAGUACAG [Mat - Exclusion 3 - Eli Mod - D46] (Eterna round: R97, puzzle: Exclusion 3) | 100 |  | 15.7 |  |  |  |
| UUUGUUUGCACAGGAUAUUGUUAUUUUUUUUUUCAAGAAGGGUGUACAUGAGGAUCACCCAUGUUAUGGUUUUAUCUUUUACUU [JR_ExcNG1_Sub011] (Eterna round: R96, puzzle: Exclusion NG 1) | 764 | 765 | 1270 |  |  |  |
| ACAUCGCCAGAAGUAGGUGACAUGAGGAUCACCCAUGUAGGCUAUUUUGCUCGUUUUAUUUCCACCCUAUUUGCUCC [Eternabot (L1) Solution 13] (Eterna round: R97, puzzle: Sensor, turn-off variant 1) | 146 |  | 190 |  |  |  |
| GUCCUGGAAUAUCAGUCGCACAUGAGGAUCACCCAUGUCAUGGGUAGAUCAAUAAAUAAAGAUACUGCUCGUCUUAU [Cac sensor turnoff var1 sub3] (Eterna round: R97, puzzle: Sensor, turn-off variant 1) | 186 |  | 409 |  |  |  |
| CGUCCUGAAGUGAGGAUAUUGUCUCGGAUACGAAACAAGAAGGCACAUGAGGAUCACCCAUGUAAACAGGACGA [Malc #30 mod 11] (puzzle: Brourd's mod of Exclusion 4) |  |  |  | 15.3 | 15.6 | 16.9 |
| UUUAAUUUUUUUUUUUUACAAGCUUUUUGCUCGUCUUAUACAUGAGGAUCACCCAUGUGAGUGGAGGAUAAAUUAUC [JMF 34] (puzzle: Sensor v3, turn-off variant 2) |  |  |  | 19.4 | 29.2 | 20.4 |
| AUAUAGUGAGGAUAUCCAAUAUAUGACAUGAGGAUCACCCAUGUUUCCACUCGUACCUCCGGAGAAGGCACAUUUU [Ex5 #65] (Eterna round: R97, puzzle: Exclusion 5) | 27.2 |  | 27.6 |  |  |  |
| CGGCAACAUGUCAGGAUAUAUGUACCGCUGGGUGGAUAGAAGGGACAUGAGGAUCACCCAUGUCGUCCAGCCGG [Tisove] (puzzle: Brourd's mod of Exclusion 4) |  |  |  | 19.4 | 12.6 | 13.9 |
| UUAGAAAUGGUAGGAUAUUAGUAGUGUUUUACUCUGAUCCACAUGAGGAUCACCCAUGUGAGUAGUGAGAAGGAUCAUUUUAUG [base off of JR design] (Eterna round: R96, puzzle: Exclusion NG 2) | 21.1 | 17.8 | 19.3 |  |  |  |
| UGUGCGUAUGUGAGGAUAUGCUGGUCCUUGGCUCGGCAGAAGGCACAUGAGGAUCACCCAUGUGGUGUCGUACG [salish99_Bmod_ex4_064] (puzzle: Brourd's mod of Exclusion 4) |  |  |  |  | 52.1 |  |
| CCUCACCGAGGAUAUACAUGAGGAUCACCCAUGUGAUCCUAAGGCUGAUCAAGCCUAUGUAGAAGGCGCAAAUC [salish99_ex3_r4_005] (Eterna round: R97, puzzle: Exclusion 3) | 1010 |  | 765 |  |  |  |
| GCAGCAACUCUAAUCAAUCAAACAUGAGGAUCACCCAUGUCUCAGGAUAUGGUCUGGAUUACAGGCCAGAAGGGAGAAAGCUGC [Eli exng3 - 045] (Eterna round: R96, puzzle: Exclusion NG 3) | 14.3 | 11.1 | 16.1 |  |  |  |
| GGCACACAUGAGGAUCACCCAUGUGAGGAUAUGAGGCGAUCGUCGAUAGACGAUAGCCUUAGAAGGCACAUGCC [Mat - Exclusion 1 - Eli Mod - D11] (Eterna round: R97, puzzle: Exclusion 1) | 45.2 |  | 21.2 |  |  |  |
| GAAAACGUAGGAUAUUAAUACUUAUACAUGAGGAUCACCCAUGUUUGGUGGGUCAAAGAAUGAGAAGGGCGAUGAA [EX5 #10] (Eterna round: R97, puzzle: Exclusion 5) | 261 |  | 376 |  |  |  |
| AAAGCGCGGUGAUAAUCUGUAACAUGAGGAUCACCCAUGUAGCAGGAUAUGGGCACAGUGGAAACUCAGAAGGGCUAUAAGCGC [Eternabot solution 21] (Eterna round: R96, puzzle: Exclusion NG 3) | 171 | 369 | 288 |  |  |  |

From the supplement of paper PMC9170038
